Each block holds one binder with its values, some of them ahead of it.
Key:
[1] = target: T1, C-terminal biotinylated human PAR-2 peptide SEQ ID NO:877 (Gly-40 to Ala) (human, not fully specified; C-terminal biotin (K-B)); test: alanine scan by biolayer interferometry (Octet Red): C-terminal biotin peptide on streptavidin tips, 200 nM antibody; T1/2 relative to wild-type peptide SEQ ID NO:871
T1 construct: alanine-scan mutant
T1 peptide: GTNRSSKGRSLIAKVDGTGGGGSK
Method: (§1) In order to more particularly identify the amino acids of PAR-2 with which the PAR-2 antibodies interact, an alanine scanning study was carried out using peptides comprising the activating PAR-2 protease cleavage site.
(§2) The ability of each peptide mutant to bind to PAR-2 antibodies was measured using biolayer interferometry (Octet Red; ForteBio). Each peptide (2.5 μg/ml) was captured on streptavidin coated biosensor tips (Octet SA sensor) for 10 seconds. To measure binding and dissociation between each peptide and PAR-2 antibody, the peptide-coated biosensors were contacted with 200 nM solutions of PAR-2 antibodies for 5 minutes (binding) followed by transfer to buffer with no antibody for 10 min (dissociation). […] The results are expressed as percent binding and percent T_{1/2} relative to WT peptide (Tables 24-28).

[2] = target: T2, C-terminal biotinylated human PAR-2 peptide SEQ ID NO:880 (Asp-43 to Ala) (human, not fully specified; C-terminal biotin (K-B)); test: as above
T2 construct: alanine-scan mutant
T2 peptide: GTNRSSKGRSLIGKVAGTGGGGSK
Method: as §1, §2

[3] = target: T3, C-terminal biotinylated human PAR-2 peptide SEQ ID NO:878 (Lys-41 to Ala) (human, not fully specified; C-terminal biotin (K-B)); test: as above
T3 construct: alanine-scan mutant
T3 peptide: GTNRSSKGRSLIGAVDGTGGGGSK
Method: as §1, §2

[4] = target: T4, C-terminal biotinylated human PAR-2 peptide SEQ ID NO:872 (Gly-35 to Ala) (human, not fully specified; C-terminal biotin (K-B)); test: BLI Exp1
T4 construct: alanine-scan mutant
T4 peptide: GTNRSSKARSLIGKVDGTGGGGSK
Method: as §1, §2

[5] = target: T5, C-terminal biotinylated human PAR-2 peptide SEQ ID NO:873 (Arg-36 to Ala) (human, not fully specified; C-terminal biotin (K-B)); test: BLI Exp1
T5 construct: alanine-scan mutant
T5 peptide: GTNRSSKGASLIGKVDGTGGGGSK
Method: as §1, §2

[6] = target: T1, C-terminal biotinylated human PAR-2 …; test: BLI Exp1
Method: as §1, §2

[7] = target: T2, C-terminal biotinylated human PAR-2 …; test: BLI Exp1
Method: as §1, §2

[8] = target: T6, C-terminal biotinylated human PAR-2 peptide SEQ ID NO:871 (wild-type) (human, not fully specified; C-terminal biotin (K-B)); test: BLI Exp1
T6 construct: also called WT peptide
T6 peptide: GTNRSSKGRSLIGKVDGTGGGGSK
Method: as §1, §2

[9] = target: T7, C-terminal biotinylated human PAR-2 peptide SEQ ID NO:875 (Leu-38 to Ala) (human, not fully specified; C-terminal biotin (K-B)); test: BLI Exp1
T7 construct: alanine-scan mutant
T7 peptide: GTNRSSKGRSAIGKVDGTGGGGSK
Method: as §1, §2

[10] = target: T3, C-terminal biotinylated human PAR-2 …; test: BLI Exp1
Method: as §1, §2

[11] = target: T8, C-terminal biotinylated human PAR-2 peptide SEQ ID NO:876 (Ile-39 to Ala) (human, not fully specified; C-terminal biotin (K-B)); test: BLI Exp1
T8 construct: alanine-scan mutant
T8 peptide: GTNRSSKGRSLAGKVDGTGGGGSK
Method: as §1, §2

[12] = target: T9, C-terminal biotinylated human PAR-2 peptide SEQ ID NO:881 (Gly-44 to Ala) (human, not fully specified; C-terminal biotin (K-B)); test: BLI Exp1
T9 construct: alanine-scan mutant
T9 peptide: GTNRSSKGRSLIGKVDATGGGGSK
Method: as §1, §2

[13] = target: T10, C-terminal biotinylated human PAR-2 peptide SEQ ID NO:874 (Ser-37 to Ala) (human, not fully specified; C-terminal biotin (K-B)); test: BLI Exp1
T10 construct: alanine-scan mutant
T10 peptide: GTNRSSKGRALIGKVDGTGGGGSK
Method: as §1, §2

[14] = target: T11, C-terminal biotinylated human PAR-2 peptide SEQ ID NO:882 (Thr-45 to Ala) (human, not fully specified; C-terminal biotin (K-B)); test: BLI Exp1
T11 construct: alanine-scan mutant
T11 peptide: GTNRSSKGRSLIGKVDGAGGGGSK
Method: as §1, §2

[15] = target: T12, C-terminal biotinylated human PAR-2 peptide SEQ ID NO:879 (Val-42 to Ala) (human, not fully specified; C-terminal biotin (K-B)); test: BLI Exp1
T12 construct: alanine-scan mutant
T12 peptide: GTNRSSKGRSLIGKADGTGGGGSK
Method: as §1, §2

Peptide J (pig PAR-2) = target: T13, Peptide J (pig PAR-2) (Pig (Sus scrofa)); test: SPR, antibody captured
T13 peptide: GTSRPSKGRSLIGKADNT
Method: Equilibrium dissociation constants (KD values) for antigen binding to selected purified PAR-2 antibodies were determined by surface kinetics using a real-time surface plasmon resonance biosensor assay. Antibody was captured on either a rabbit anti-mouse IgG polyclonal antibody (GE Healthcare, Piscataway, N.J.) surface or a goat anti-human IgG polyclonal antibody (Jackson Immuno Research Lab, West Grove, Pa.) surface created through direct amine chemical coupling to a BIACORE™ CM5 sensor chip to form a captured antibody surface. […] Antigen-antibody binding and dissociation were monitored in real time at room temperature. Kinetic analysis was performed to calculate KD and half-life of antigen/antibody complex dissociation (Table 10). For those antibodies where no T_{1/2} value is shown, steady state analysis was used to calculate the KD value. NB: no binding observed under current experimental conditions. ND: not determined.

percent of T1/2 relative to wild-type peptide (average of duplicate experiments) [1]: 24%
percent of T1/2 relative to wild-type peptide (average of duplicate experiments) [2]: 20%
percent of T1/2 relative to wild-type peptide (average of duplicate experiments) [3]: 56%
% Rel Binding [4]: 78%
% Rel T1/2 [4]: 118%
% Rel Binding [5]: 87%
% Rel T1/2 [5]: 122%
% Rel Binding [6]: 101%
% Rel T1/2 [6]: 33%
% Rel Binding [7]: 18%
% Rel T1/2 [7]: 36%
% Rel Binding [8]: 100%
% Rel T1/2 [8]: 100%
% Rel Binding [9]: 9%
% Rel T1/2 [9]: 0.4%
% Rel Binding [10]: 113%
% Rel T1/2 [10]: 63%
% Rel Binding [11]: 8%
% Rel T1/2 [11]: 0.2%
% Rel Binding [12]: 67%
% Rel T1/2 [12]: 117%
% Rel Binding [13]: 45%
% Rel T1/2 [13]: 7%
% Rel Binding [14]: 65%
% Rel T1/2 [14]: 129%
% Rel Binding [15]: 36%
% Rel T1/2 [15]: 1%
B1: H4H581P (antibody, human IgG4, V domains shown)
VH: QVQLVESGGGVVQPGRSLRLSCVASGFTFSRYGIHWVRQAPGKGLEWVIVISYDGINKYYADSVKGRFTISRDNSKNTVYLQMNSLRAEDTAVYYCAKGDFWSGYFDYWGQGTLVTVSS
VL: DIVMTQTPLSSPVTLGQPASISCRSSQSLVHSDGNTYLSWLHQRPGQPPRLLIYKISNRFSGVPDRFSGSGAGTDFTLQISRVEAEDVGIYYCMQATQFPTFGGGTKVEIK
notes: also called mAb H4H581P; H1H581P variable regions

Kd (Peptide J (pig PAR-2)): 190 nM
T1/2 (Peptide J (pig PAR-2)): 9.6 s
B2: H4H583P (antibody, human IgG4, V domains shown)
VH: QVQLVESGGGVVQPGMSLRLSCTASGFTFRRYGMHWVRQAPGKGLEWVAVIWYDGSNKYYADSVKGRFTITRDNSKNTLYLQMNSLRAEDTAIYFCASEITIGDWFDPRGQGTLVTVSS
VL: AIQMTQSPSSLSASVGDRVTITCRASQGIRNDLGWFQQKPGKVPKLLIYAASTLHSGVPSRFSGSGFGTDFTLTISSLQPEDFATYYCLQDFNYPLTFGGGTKVEIK
notes: also called H1H583P variable regions

percent of T1/2 relative to wild-type peptide (average of duplicate experiments) [1]: 0.5%
percent of T1/2 relative to wild-type peptide (average of duplicate experiments) [2]: 4.5%
percent of T1/2 relative to wild-type peptide (average of duplicate experiments) [3]: 84%
binding result (Peptide J (pig PAR-2)): no binding
% Rel Binding [4]: 122%
% Rel T1/2 [4]: 100%
% Rel Binding [5]: 208%
% Rel T1/2 [5]: 100%
% Rel Binding [6]: 30%
% Rel T1/2 [6]: 1%
% Rel Binding [7]: 35%
% Rel T1/2 [7]: 4%
% Rel Binding [8]: 100%
% Rel T1/2 [8]: 100%
% Rel Binding [9]: 127%
% Rel T1/2 [9]: 100%
% Rel Binding [10]: 217%
% Rel T1/2 [10]: 108%
% Rel Binding [11]: 92%
% Rel T1/2 [11]: 36%
% Rel Binding [12]: 81%
% Rel T1/2 [12]: 1%
% Rel Binding [13]: 119%
% Rel T1/2 [13]: 100%
% Rel Binding [14]: 125%
% Rel T1/2 [14]: 94%
% Rel Binding [15]: 74%
% Rel T1/2 [15]: 1%
B3: H4H588N (antibody, human IgG4, V domains shown)
VH: EVQLLESGGGLVQPGGSLRLSCAASGFTFSSYAMTWVRQAPGKGLYWVSAISGGRGSAYYADSVKGRFTISRDNSKNTLYLQMNSLRAEDTAVYYCAKEGDSGYDLAYWGRGTLVTVSS
VL: DIQMTQSPSSLSASVGDRVTITCRARQGISNNLAWLQQKPGKAPKSLIYAASSLQSGIPSKFSGSGSGTYFTLTISSLQPEDFATYYCQQYKSSPLTFGGGTKVEIK
notes: also called H2M588N variable regions

Source: US20110059095A1 (Regeneron, published 2011)
